# What was measured:
# [1] = biological target: CA of isolated HIV-1 A14C/E45C cores (HIV-1); assay: cross-linking; isolated HIV-1 cores with double-cysteine mutant CA, with or without oxidizer; non-reducing SDS-PAGE, immunoblotting with rabbit anti-CA serum
# [2] = biological target: HIV-1 CA A14C/E45C, tubular assemblies (HIV-1); assay: cross-linking; preassembled double-cysteine mutant CA tubes oxidized with CuSO4/1,10-phenanthroline for 5 seconds, quenched with iodoacetamide and neocuproine; non-reducing SDS-PAGE, Coomassie Blue; with or without prior TRIM5α CC-SPRY (18 µM)
# [3] = biological target: CA of isolated HIV-1 P207C/T216C cores, without oxidizer (HIV-1); assay: cross-linking; isolated HIV-1 cores with double-cysteine mutant CA, with or without oxidizer; non-reducing SDS-PAGE, immunoblotting with rabbit anti-CA serum
# [4] = biological target: HIV-1 CA P207C/T216C, tubular assemblies, non-oxidized (HIV-1); assay: cross-linking; preassembled double-cysteine mutant CA tubes oxidized with CuSO4/1,10-phenanthroline for 5 seconds, quenched with iodoacetamide and neocuproine; non-reducing SDS-PAGE, Coomassie Blue; with or without prior TRIM5α CC-SPRY (18 µM)
# [5] = biological target: HIV-1 capsid protein (CA), wild type, preassembled tubular assemblies (HIV-1); assay: co-sedimentation; preassembled wild-type CA tubes (64 µM) incubated with TRIM5α CC-SPRY (0-20 µM) 1 hr at room temperature in 10 mM Tris pH 7.5, 330 mM NaCl, 1 mM TCEP, 5% glycerol; pelleted at 20,000 g 15 min; SDS-PAGE, Coomassie Blue, gel densitometry of pellet
# [6] = biological target: HIV-1 capsid-nucleocapsid (CA-NC), preassembled tubular assemblies (HIV-1); assay: co-sedimentation; preassembled CA-NC tubes (2 mg/ml or 10 µM, with TG50 oligonucleotide) incubated with TRIM5α CC-SPRY (0-20 µM) 1 hr at room temperature; pelleted at 20,000 g 15 min; SDS-PAGE, Coomassie Blue, gel densitometry of pellet
substance,measurement,setting,value
CA of isolated HIV-1 A14C/E45C cores (natural protein),stoichiometry N,[1],6
"HIV-1 CA A14C/E45C, tubular assemblies (natural protein)",stoichiometry N,[2],6
"CA of isolated HIV-1 P207C/T216C cores, without oxidizer (natural protein)",stoichiometry N,[3],3
"HIV-1 CA P207C/T216C, tubular assemblies, non-oxidized (natural protein)",stoichiometry N,[4],3
"Rhesus macaque TRIM5α coiled-coil and SPRY domains (TRIM5αrh CC-SPRY, residues 134–497) (from UniProt Q0PF16 134-497) (domain or fragment)",binding ratio (molar ratio of bound TRIM5αrh CC-SPRY to CA in the pellet) at 18 µM TRIM5αrh CC-SPRY,[5],0.41 molar ratio
same,binding ratio (molar ratio of bound TRIM5αrh CC-SPRY to CA-NC in the pellet) at 1 µM TRIM5αrh CC-SPRY and 10 µM CA-NC,[6],0.034 molar ratio
same,binding ratio (molar ratio of bound TRIM5αrh CC-SPRY to CA-NC in the pellet) at 18 µM TRIM5αrh CC-SPRY,[6],0.21 molar ratio
